US20150175666A1 (YEDA RESEARCH AND DEVELOPMENT, published 2015)
Ends that are not written are not given here. * marks the point of attachment. NBD = O=[N+]([O-])c1ccc(*)c2nonc12

Experiments:
[1] = target: T1, NBD-labeled core peptide of the TCRα TMD (GLRILLLKV; SEQ ID NO: 14); experiment: NBD fluorescence of NBD-CP on PC:Chol LUVs, sequential doses of unlabeled peptide
T1 construct: also called NBD-CP; CP
T1 peptide: {NBD}-GLRILLLKV

[2] = target: T2, TCR of MOG35-55-specific murine line T cells (mMOG35-55 T cells) (mouse, UniProt A2KF29); experiment: cell-based or functional assay
T2 sequence (A2KF29 whole entry): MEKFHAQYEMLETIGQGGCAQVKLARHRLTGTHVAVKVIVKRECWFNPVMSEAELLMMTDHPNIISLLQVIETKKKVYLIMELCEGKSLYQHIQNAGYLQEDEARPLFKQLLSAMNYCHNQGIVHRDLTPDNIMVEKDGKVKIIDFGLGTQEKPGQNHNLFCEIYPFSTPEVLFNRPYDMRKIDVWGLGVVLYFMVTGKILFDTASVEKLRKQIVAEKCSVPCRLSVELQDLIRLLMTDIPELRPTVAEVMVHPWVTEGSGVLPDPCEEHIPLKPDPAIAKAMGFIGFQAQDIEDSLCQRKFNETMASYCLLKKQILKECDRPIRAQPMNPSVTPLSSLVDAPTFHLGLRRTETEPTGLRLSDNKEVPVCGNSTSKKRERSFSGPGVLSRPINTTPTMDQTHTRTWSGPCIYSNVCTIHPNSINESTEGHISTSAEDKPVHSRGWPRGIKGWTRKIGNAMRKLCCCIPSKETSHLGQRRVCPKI

[3] = target: T2, TCR of MOG35-55-specific murine line T …; experiment: cell-based or functional assay; remark: listed apart in the source

B1: control mutant (W/G) peptide (SNKSLEQIGNHTTGMEGD, SEQ ID NO: 9), unlabeled (peptide)
peptide: SNKSLEQIGNHTTGMEGD
notes: Unlabeled form used in the NBD-CP fluorescence experiment
B1: binds [1].

B2: pep 6 (SNKSLEQIWNHTTWMEWD), gp41 derived peptide, unlabeled (peptide)
peptide: SNKSLEQIWNHTTWMEWD
With B2 the “inhibitory concentration at 50% proliferation (IC50), MOG35-55-specific T-cell proliferation” value [2] was 1000 nM, the “IC50 (µM), inhibition of MOG35-55-specific T-cell proliferation” value [3] was 0.55 µM and the binding result [1] was “binds”.

B3: control mutant peptide (SNKSLEQIWNHTTWMGWG, SEQ ID NO: 10), unlabeled (peptide)
peptide: SNKSLEQIWNHTTWMGWG
notes: pep 6 with the conserved acidic residues (Glu and Asp) mutated to Gly
B3: binds [1].
